From article PMC7608914, “Bridging of nucleosome-proximal DNA double-strand breaks by PARP2 enhances its interaction with HPF1”

Key:
Settings in all cases: protein: recombinant; (HisTrap purified); label: 6-FAM on 5' end of bottom strand; blunt
PARP2-WT [1] = target: T1, PARP2-WT (Homo sapiens, UniProt Q9UGN5-2 1-570); assay: fluorescence polarization; 50 mM NaCl, 1 mM MgCl2; Hill 1.2; FP/FRET: 50 mM Tris-HCl pH 8, 50 mM NaCl, 1 mM MgCl2, 0.1 mM EDTA, 0.1 mM TCEP, 0.01% NP-40, temperature not stated; EMSA: 20 mM Tris pH 7.5, 1 mM EDTA, 1 mM DTT, 4 C
PARP2-WT [2] = target: T1, PARP2-WT; assay: fluorescence polarization; 60 mM KCl, 8 mM MgCl2; FP/FRET: 50 mM Tris-HCl pH 8, 50 mM NaCl, 1 mM MgCl2, 0.1 mM EDTA, 0.1 mM TCEP, 0.01% NP-40, temperature not stated; EMSA: 20 mM Tris pH 7.5, 1 mM EDTA, 1 mM DTT, 4 C
PARP2-QFRD [3] = target: T2, PARP2-QFRD (Homo sapiens, UniProt Q9UGN5-2 1-570, Q112R;F113D); assay: as above
PARP2-QFRD [4] = target: T2, PARP2-QFRD; assay: fluorescence polarization; 50 mM NaCl, 1 mM MgCl2; Hill 0.9; FP/FRET: 50 mM Tris-HCl pH 8, 50 mM NaCl, 1 mM MgCl2, 0.1 mM EDTA, 0.1 mM TCEP, 0.01% NP-40, temperature not stated; EMSA: 20 mM Tris pH 7.5, 1 mM EDTA, 1 mM DTT, 4 C

B1: p18mer_fluorescein (dsDNA)
DNA 1: GGGTTGCGGCCGCTTGGG
DNA 2: CCCAAGCGGCCGCAACCC
modifications: 5'-phosphate on top strand
Kd (PARP2-WT [1]): 0.0111 ± 0.0004 µM
Kd (PARP2-WT [2]): ~0.24 µM
Kd (PARP2-QFRD [3]): ~0.24 µM
Kd (PARP2-QFRD [4]): 0.0171 ± 0.0018 µM
